From paper PMC9842190 (Seminars in immunology, 2022)

B1: C-terminal domain of the Staphylococcus aureus immune evasion protein Efb (domain or fragment)
chain: TDATIKKEQKLIQAQNLVREFEKTHTVSAHRKAQKAVNLVSFEYKVKKMVLQERIDNVLKQGLV
B2: CCP domains 19-20 of human Factor H (domain or fragment)
chain: GKCGPPPPIDNGDITSFPLSVYAPASSVEYQCQNLYQLEGNKRITCRNGQWSEPPKCLHPCVISREIMENYNIALRWTAKQKLYSRTGESVEFVCKRGYRLSSRSHTLRTTCWDGKLEYPTCAKR

How the values were obtained:
[1] = biological target: T1, Human C3b, site-specifically biotinylated at its thioester cysteine (human, UniProt P01024 23-667; P01024 749-1663); test: SPR
T1 sequence (P01024 23-667, chain 1 of 2): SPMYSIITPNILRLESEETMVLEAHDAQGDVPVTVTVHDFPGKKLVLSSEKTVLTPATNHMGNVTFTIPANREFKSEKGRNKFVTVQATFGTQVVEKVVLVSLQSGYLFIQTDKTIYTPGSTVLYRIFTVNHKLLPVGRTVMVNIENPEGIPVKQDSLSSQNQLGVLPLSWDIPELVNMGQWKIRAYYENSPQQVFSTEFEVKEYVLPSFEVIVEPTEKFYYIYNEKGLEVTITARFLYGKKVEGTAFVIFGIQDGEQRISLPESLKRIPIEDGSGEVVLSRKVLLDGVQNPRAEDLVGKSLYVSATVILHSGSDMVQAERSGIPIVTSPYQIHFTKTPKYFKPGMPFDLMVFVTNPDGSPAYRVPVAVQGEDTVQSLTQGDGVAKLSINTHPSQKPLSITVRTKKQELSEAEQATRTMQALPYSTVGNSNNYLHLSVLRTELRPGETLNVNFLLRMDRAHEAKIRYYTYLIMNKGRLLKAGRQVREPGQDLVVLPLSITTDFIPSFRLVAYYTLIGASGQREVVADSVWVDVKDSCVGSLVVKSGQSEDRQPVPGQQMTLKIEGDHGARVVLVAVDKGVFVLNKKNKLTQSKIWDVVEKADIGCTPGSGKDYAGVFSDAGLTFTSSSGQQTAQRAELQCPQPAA
T1 sequence (P01024 749-1663, chain 2 of 2): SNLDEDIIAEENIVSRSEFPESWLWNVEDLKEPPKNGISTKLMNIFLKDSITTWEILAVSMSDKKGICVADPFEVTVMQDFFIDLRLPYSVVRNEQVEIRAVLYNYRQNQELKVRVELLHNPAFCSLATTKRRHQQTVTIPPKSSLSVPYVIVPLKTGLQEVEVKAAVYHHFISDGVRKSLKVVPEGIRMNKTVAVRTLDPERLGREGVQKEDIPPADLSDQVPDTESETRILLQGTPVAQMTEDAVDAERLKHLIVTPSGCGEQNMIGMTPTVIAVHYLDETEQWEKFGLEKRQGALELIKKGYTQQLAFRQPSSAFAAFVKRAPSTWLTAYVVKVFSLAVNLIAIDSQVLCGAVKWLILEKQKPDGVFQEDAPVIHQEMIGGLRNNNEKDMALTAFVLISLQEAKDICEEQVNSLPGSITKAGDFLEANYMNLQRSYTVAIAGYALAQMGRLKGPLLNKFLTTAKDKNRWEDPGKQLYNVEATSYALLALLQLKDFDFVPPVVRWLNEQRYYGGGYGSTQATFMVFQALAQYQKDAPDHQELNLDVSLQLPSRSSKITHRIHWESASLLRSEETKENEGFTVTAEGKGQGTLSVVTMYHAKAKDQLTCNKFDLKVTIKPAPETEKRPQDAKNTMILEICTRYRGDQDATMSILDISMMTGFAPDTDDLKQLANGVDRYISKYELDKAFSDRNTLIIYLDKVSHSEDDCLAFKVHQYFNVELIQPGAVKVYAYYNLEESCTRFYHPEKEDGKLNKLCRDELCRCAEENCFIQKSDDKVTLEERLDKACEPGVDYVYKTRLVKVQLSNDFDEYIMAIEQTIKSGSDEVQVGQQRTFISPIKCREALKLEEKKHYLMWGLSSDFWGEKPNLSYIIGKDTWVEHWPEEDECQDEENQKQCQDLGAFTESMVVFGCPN

[2] = biological target: T1, Human C3b, site-specifically …; test: SPR; remark: listed apart in the source

| Binder | Kd [1] | half-life of the complex [1] | koff [1] | binding result [2] |
| --- | --- | --- | --- | --- |
| B1 | 0.11 nM | ~1 h | 0.000187 s⁻¹ |  |
| B2 |  |  |  | binds |
